Data on 4 molecules can be found in patent publication US20250011411A1 (JIANGSU HENGRUI PHARMACEUTICALS, published 2025).

What is called EC50 is the concentration giving half of the maximal effect. The IC50 is the concentration needed to halve the response being measured.

Assay [1] has as its target T1, human sclerostin (SOST) (human, UniProt Q9BQB4 24-213).
T1 construct: also called human SOST; h-SOST
T1 sequence (looked up): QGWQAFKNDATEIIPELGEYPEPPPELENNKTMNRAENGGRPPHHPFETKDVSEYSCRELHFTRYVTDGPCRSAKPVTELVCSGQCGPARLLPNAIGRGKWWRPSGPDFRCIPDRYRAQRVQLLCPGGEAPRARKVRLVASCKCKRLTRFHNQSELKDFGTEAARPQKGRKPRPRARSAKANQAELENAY
Description: ELISA binding to human sclerostin (assay not given; taken from the text of Example 1).

Assay [2] concerns the target T1, human sclerostin (SOST). In words: blocking of the binding of human SOST to human LRP-6.
Assay [3] has as its target T1, human sclerostin (SOST). In words: binding ELISA, antigen-receptor binding blocking experiments, Biacore; no numbers given.

Changes are numbered by the printed parent chain.

B1: murine anti-human SOST monoclonal antibody Ab-1 (antibody, V domains shown)
VH: EVQLQQSGPELVKPGTSVKIPCQTSGYTFTDYNLDWLKQRPGESLEWIGDIDPNNGDILYNQKFRDKATLTVDTSSNTAYLELRSLTSEDTAVYYCARRWAYYFDYWGQGTTLTISS
VL: NIVMTQTPKLLFVSAGDRITITCKASQSVSNDVAWYQQKPGQSPKLLIYYTSNRFTGVPDRFTGSGYGTDFTLTINTVQAEDLAVYFCQQDYSSPVTFGAGTKLELK
notes: Murine hybridoma antibody; also called monoclonal hybridoma cell strain Ab-1; murine antibody Ab-1
Molecule B1 returned an EC50 in the assay with human sclerostin (SOST) [1] of 0.701 nM. In the assay with human sclerostin (SOST) [2], this molecule gave an IC50 of 9.91 nM.

B2: humanized anti-SOST antibody Ab-5 (antibody, human IgG4 S228P, kappa, V domains shown)
VH: EVQLVQSGAEVKKPGASVKVSCKASGYTFTDYNLDWLRQAPGEGLEWIGDIDPNDGDILYNQKFRDRVTMTTDTSTSTAYMELRSLRSDDTAVYYCARRWAYYFDYWGQGTTVTVSS
VL: DIVMTQSPSSLSASVGDRVTITCKASQSVSNDVAWYQQKPGKSPKLLIYYTSNRFTGVPDRFSGSGSGTDFTLTISSLQPEDFATYFCQQDYSSPVTFGGGTKVEIKR
notes: Human IgG4 heavy chain and kappa light chain
Turning to B2, the binding result with human sclerostin (SOST) [3] is “binds”.

B3: humanized anti-SOST antibody Ab-9 (antibody, human IgG4 S228P, kappa, V domains shown)
VH: B2 VH with D55N
VL: B2 VL with D1N
notes: as for B2
For B3, in the assay with human sclerostin (SOST) [3], the binding result is on record as “binds”.

B4: humanized anti-SOST antibody Ab-10 (antibody, human IgG1, kappa, V domains shown)
VH: B2 VH with L37V, E43Q, I48M, D55N
VL: B2 VL with V3Q, S43A, D60S, F87Y
notes: kappa light chain
Consider B4, for which the binding result with human sclerostin (SOST) [3] is given as “binds”.
